Test results as given in patent US20230184787.

Molecular target: T1, full-length human calprotectin (heterodimer of S100A9 and S100A8), P06702
T1 chain 1: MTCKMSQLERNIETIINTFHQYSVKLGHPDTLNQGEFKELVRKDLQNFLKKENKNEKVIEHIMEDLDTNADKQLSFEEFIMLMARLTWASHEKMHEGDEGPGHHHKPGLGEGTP
T1 chain 2: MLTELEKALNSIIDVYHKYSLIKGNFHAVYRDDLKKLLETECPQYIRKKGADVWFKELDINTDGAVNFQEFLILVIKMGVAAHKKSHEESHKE

B1: human neutrophil elastase (protein)
chain: IVGGRRARPHAWPFMVSLQLRGGHFCGATLIAPNFVMSAAHCVANVNVRAVRVVLGAHNLSRREPTRQVFAVQRIFENGYDPVNLLNDIVILQLNGSATINANVQVAQLPAQGRRLGNGVQCLAMGWGLLGRNRGIASVLQELNVTVVTSLCRRSNVCTLVRGRQAGVCFGDSGSPLVCNGLIHGIASFVRGGCASGLYPDAFAPVAQFVNWIDSIIQ
  calprotectin fragments identified by non-targeted mass spectrometry after in vitro cleavage: several neo-epitope containing calprotectin fragments were generated by HNE, from both the S100A9 and S100A8 proteins
